Results taken from patent publication US20230025280A1, “PH RESPONSIVE COMPOSITIONS, FORMULATIONS, AND METHODS OF IMAGING A TUMOR” (ONCONANO MEDICINE, INC, priority 2019, published 2023).
“And” between values parts separate entries of the source, which are not always exact repeats. Equal entries are not always repeated.

Assay: Phase 1 (1a/1b) pharmacokinetics: plasma concentrations after single IV dose (validated direct fluorescence reader assay), noncompartmental analysis
Assay type: in vivo, human
Conditions: for AUC0-24 hr / AUCall / AUClast / C10 m / Cmax / T1/2 / Tmax / Plasma Conc: Phase 1b; for AUC0-24 hr / AUCall / AUClast / C10 m / Cmax / T1/2 / Tmax: 1.2 mg/kg single IV; for Plasma Conc: 1.2 mg/kg
Source text: Phase 1 is a single-Principal Investigator, non-randomized, open-label, single-arm, cross-sectional study to evaluate the safety, PK profile, and imaging feasibility of Compound 1 in patients with solid cancers who require surgical excision. The main purpose of this study was to investigate the safety, PK, and feasibility of Compound 1 as an intra-operative optical imaging agent to detect tumors and metastatic lymph nodes in solid cancers. The study was intended to investigate the optimal dose range of Compound 1 for an adequate TBR and CNR of fluorescence obtained intraoperatively at 24 (±8) hours post dosing and with ex vivo specimens using ICG compatible cameras and imaging devices.
Phase 1 enrolled 30 patients with solid cancers (HNSCC, breast cancer, esophageal cancer, or colorectal cancer) who have a biopsy-confirmed diagnosis of respective tumor types and are scheduled to undergo surgical resection of the tumor. The study design included a standard 3+3 design for the dose-escalation portion (Phase 1a; N=18 maximum) followed by a dose-expansion portion (Phase 1b; N=15). All patients received a single I.V. dose of Compound 1, followed by routine surgery approximately 24 hours after infusion of Compound 1.
Phase 1a was a dose-finding study performed in 5 cohorts of 3 patients each. The dose levels evaluated were […], and 1.2 mg/kg, in this sequence. Inter-cohort dose escalation took place after the last patient in the previous cohort completed the Day 10 safety assessment. Safety, PK, and imaging feasibility were evaluated in both the Phase 1a and 1b portions of the study. Patient safety is assessed during the study and for up to 10 days post-dose.
Study design: Single Compound 1 IV dose was administered as a 1-5 minute IV infusion to patients in five cohorts (0.1, 0.3, 0.5, 0.8, and 1.2 mg/kg) with three patients per cohort in Phase 1a and 15 patients at a dose of 1.2 mg/kg in Phase 1b. Patient demographic information including tumor types is presented in Table 4 and 5 for Phase 1a and Table 5 for Phase 1b. Intertek Pharmaceutical Services (San Diego, Calif.) determined Compound 1 plasma concentrations using a validated direct fluorescence reader assay. Pacific BioDevelopment (Davis, Calif.) performed the PK analysis.
Sample collection: Blood samples were collected prior to infusion and at 10 minutes and 0.5, 1, 3, 8, 24, 48, 72, and 240 hours after infusion.
Analysis: Plasma concentration versus time profiles were generated for each patient. Pharmacokinetic parameters were estimated using Phoenix WinNonlin (version 8.0). According to SOP, concentrations reported as BQL were set to 0 except for the 0.5 h sample for subject #ON1102, which was set to LLOQ/2 ([…] value used in parameter calculations) and the 24 and 48 h samples.
If the coefficient of determination for the terminal slope estimation was less than 0.8, T1/2 was not reported (NR). AUC extrapolated to infinity is not reported for any data set because in all cases the % extrapolated AUC was greater than 20% and thus the AUCinf estimate would not be reliable. The concentration at 10 minutes, the first time point measured (C10m), was also reported for each patient.
The area under the plasma concentration versus time curves from dosing to the last time point with a measurable concentration (AUClast) was estimated by the linear trapezoid method. The last three or more time points were used to estimate the elimination rate constant (λz) which was used to estimate the terminal-phase half-life (T1/2) and AUC from zero to infinity (AUCINF) from the following equations: […]

## PEO90-140-b-P(DBA60-150-r-ICG0-3-r-AMA0-3) [Compound 1]
mean
  AUC0-24 hr: 638 µg·h/mL
  AUCall: 1840 µg·h/mL
  AUClast: 1180 µg·h/mL
  C10 m: 33.2 µg/mL
  Cmax: 34800 ng/mL
  T1/2: 46.4 h
  Tmax: 0.967 h
median
  AUC0-24 hr: 626 µg·h/mL
  AUCall: 1460 µg·h/mL
  AUClast: 1110 µg·h/mL
  C10 m: 32.1 µg/mL
  Cmax: 34100 ng/mL
  T1/2: 42.6 h
  Tmax: 1.00 h
0.170 hr, individual subject
  Plasma Conc: 27.5 µg/mL and 38.6 µg/mL and 30.3 µg/mL and 31.4 µg/mL and 25.5 µg/mL and 40.0 µg/mL and 47.6 µg/mL and 32.6 µg/mL and 31.3 µg/mL and 36.5 µg/mL and 32.1 µg/mL and 35.8 µg/mL and 33.0 µg/mL and 28.0 µg/mL and 28.5 µg/mL
0.170 hr, mean
  Plasma Conc: 33.2 µg/mL
0.170 hr, median
  Plasma Conc: 32.1 µg/mL
0.500 hr, individual subject
  Plasma Conc: 29.2 μg/mL and 35.2 μg/mL and 30.3 μg/mL and 28.5 μg/mL and 27.6 μg/mL and 40.0 μg/mL and 44.1 μg/mL and 32.0 μg/mL (2×) and 28.9 μg/mL and 34.5 μg/mL and 32.9 μg/mL and 36.4 μg/mL and 31.4 μg/mL and 29.8 μg/mL
0.500 hr, mean
  Plasma Conc: 32.9 µg/mL
0.500 hr, median
  Plasma Conc: 32.0 µg/mL
1.00 hr, individual subject
  Plasma Conc: 25.9 μg/mL and 33.0 μg/mL and 31.3 μg/mL (2×) and 32.6 μg/mL and 23.3 μg/mL and 42.2 μg/mL (2×) and 29.9 μg/mL (2×) and 37.7 μg/mL and 34.1 μg/mL and 35.4 μg/mL and 34.3 μg/mL and 26.8 μg/mL
1.00 hr, mean
  Plasma Conc: 32.7 µg/mL
1.00 hr, median
  Plasma Conc: 32.6 µg/mL
3.00 hr, individual subject
  Plasma Conc: 27.5 μg/mL and 34.3 μg/mL (2×) and 32.4 μg/mL and 31.3 μg/mL and 25.0 μg/mL and 40.1 μg/mL and 35.3 μg/mL and 30.3 μg/mL and 29.6 μg/mL and 31.5 μg/mL and 33.3 μg/mL and 31.2 μg/mL and 26.4 μg/mL and 25.4 μg/mL
3.00 hr, mean
  Plasma Conc: 31.2 µg/mL
3.00 hr, median
  Plasma Conc: 31.3 µg/mL
8.00 hr, individual subject
  Plasma Conc: 21.1 μg/mL and 28.3 μg/mL and 31.3 μg/mL and 26.1 μg/mL and 23.6 μg/mL (2×) and 35.8 μg/mL and 32.6 μg/mL and 25.0 μg/mL and 33.6 μg/mL and 27.9 μg/mL and 32.4 μg/mL and 27.8 μg/mL and 30.0 μg/mL and 24.5 μg/mL
8.00 hr, mean
  Plasma Conc: 28.2 µg/mL
8.00 hr, median
  Plasma Conc: 27.9 µg/mL
24.0 hr, individual subject
  Plasma Conc: 18.9 μg/mL and 29.8 μg/mL and 15.5 μg/mL and 20.2 μg/mL and 15.0 μg/mL and 23.9 μg/mL and 22.7 μg/mL and 19.5 μg/mL and 26.2 μg/mL and 20.3 μg/mL (2×) and 21.2 μg/mL and 18.6 μg/mL and 25.6 μg/mL and 21.0 μg/mL
24.0 hr, mean
  Plasma Conc: 21.2 µg/mL
24.0 hr, median
  Plasma Conc: 20.3 µg/mL
48.0 hr, individual subject
  Plasma Conc: BQL (BQL (<10 μg/mL), set = 0 for PK analysis) (2×) and 19.9 μg/mL and 18.5 μg/mL and 12.6 μg/mL and 12.0 μg/mL and 16.3 μg/mL and 13.3 μg/mL and 11.8 μg/mL and 15.0 μg/mL and 12.5 μg/mL and 10.2 μg/mL and 22.0 μg/mL and 12.8 μg/mL and 12.3 μg/mL
48.0 hr, mean
  Plasma Conc: 12.6 µg/mL
48.0 hr, median
  Plasma Conc: 12.6 µg/mL
72.0 hr, individual subject
  Plasma Conc: BQL (BQL (<10 μg/mL), set = 0 for PK analysis) (8×) and 18.7 μg/mL and 14.9 μg/mL and 10.4 μg/mL and 12.0 μg/mL and 12.8 μg/mL and 13.8 μg/mL and 17.3 μg/mL
72.0 hr, mean
  Plasma Conc: 6.66 µg/mL
72.0 hr, median
  Plasma Conc: 0.00 µg/mL
240 hr, individual subject
  Plasma Conc: BQL (BQL (<10 μg/mL), set = 0 for PK analysis)
240 hr, mean
  Plasma Conc: 0.00 µg/mL
240 hr, median
  Plasma Conc: 0.00 µg/mL
From 0.3 through 1.2 mg/kg
  C10 in relation to dose: appears to be dose proportional
